Legend:
[1] = biological target: AAC(2′)-Ia (Providencia stuartii, UniProt Q52424); assay: X-ray crystal structure; format: binding
[2] = test system: CN[C@@H]1[C@@H](O)[C@@H](O[C@@H]2[C@@H](O)[C@H](O[C@H]3OC(CNCCO)=CC[C@H]3N)[C@@H](N)C[C@H]2NC(=O)[C@@H](O)CCN)OC[C@]1(C)O; assay: purified protein; format: biochemical, Providencia stuartii; conditions: 150 μM AcCoA, 25 mM MES pH 6, 25 °C

Sequence of AAC(2′)-Ia (Q52424 whole entry): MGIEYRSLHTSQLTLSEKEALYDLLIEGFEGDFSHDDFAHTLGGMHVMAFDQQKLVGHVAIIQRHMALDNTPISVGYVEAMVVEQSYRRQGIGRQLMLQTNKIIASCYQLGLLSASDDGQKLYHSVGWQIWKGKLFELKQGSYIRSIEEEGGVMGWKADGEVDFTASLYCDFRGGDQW

For `CC(=O)SCCNC(=O)CCNC(=O)[C@H](O)C(C)(C)COP(=O)(O)OP(=O)(O)OC[C@H]1O[C@@H](n2cnc3c(N)ncnc32)[C@H](O)[C@@H]1OP(=O)(O)O` [acetyl-coenzyme A], the X-ray crystal structure ([1]; one molecule modelled) was “one acetyl-coenzyme A, and three coenzyme A molecules was evident in difference density maps”.
With `CC(C)(COP(=O)(O)OP(=O)(O)OC[C@H]1O[C@@H](n2cnc3c(N)ncnc32)[C@H](O)[C@@H]1OP(=O)(O)O)[C@@H](O)C(=O)NCCC(=O)NCCS` [coenzyme A] the X-ray crystal structure ([1]; active site) was “one dimer contained a coenzyme A bound to each active site”.
AAC(2′)-Ia (Providencia stuartii) showed a Km [2] of 370 ± 90 µM, a kcat [2] of 0.9 ± 0.1 s⁻¹ and a kcat/Km [2] of 2400 M⁻¹ s⁻¹.
